Results published in the DeepSol protein solubility set.

Assay: soluble on expression in E. coli; label from the status in PepcDB or PDB records

Sequence | soluble on expression in E. coli
MHYSDHFHKVCIASELNEFTDAFRIIYSWLFSLKLLEPKFMDKDSIFCRLFTSIHFRLKYIAAPHYEERKRHLETLEKDGVPKAYIREYAEQQLNVIKQFKLEQKPIGHSFSTDEIIDAARCFGELSNGISVRSRYQRFRAVCMSWFSFMEVITGKDKSYPGSNYVDMFCEWHLTSKGSSVGATVHICQELDRFFAYINSKSVTINLLTAACIDGYIETYQSACFARKTVASKVSILRTFLRYLYNRSIIKTDMSSYLISPRIYTCEILSVSPNENDLNRISHFYDGNTPSAIRNKAILLLLIEYGMRSGGSYRFKT | not soluble
MIAKIIKGTSFSGVLAYILGKQEGKARILYADGVRANAQASDIANDFALQASMRPNVKKPVCHTILSFSAEDTERLSDKVMTDLAKEYLQRMGYADTQYLIVRHLDREHPHLHICINRVNNEGKTISDSNEKYCSTKVCKELTEANLLKWGEGKEAVKRHRLRGNDQLRYAIFDAIKAALPKCTNWQELTSELQKRGIEVQFKTKGQTEKVEGVIFSMDGVSFSGSHIDRSCSYSKLSFALEQNAKHALSLPALPKEDGFIEELSEAIEKLGENLFDSNAPAVDVAELIFQRKLRNQANKKLKRRRL | not soluble
MIASIFGKITFVGKRKIIVEANCISYWFNVKENHSFEKNLEKPRQVFCQIIKRMVTNQILEEGFA | not soluble
MIDMTSKKRAVAPRDLYRRWPWANTAGMEPDMVRLQIFVQNLERAVIGDGRMRPVTSPSEFCDNIGISHATLGRILRGEVIPRFDTIDKLERGVGRALFPPFEDVRVRGNKG | not soluble
MIDQLQVGPNPLVGLLDDVHMLEVQRDSGVANILNSPEIKKRHYNATRKRVNRRDSTIVEPEAKSRKMDENWTGVGTESESTDCVETTETRFTWFKAQTKHPGLAKSLQSEVTKVGLSIVDLQHCTLPCKSINYNFHFYSFKGLSREDSKKFEEMIDQNFVNNFCAENLLNKEDKNFFYYDLGYKQVVSLSMLATYFKIKNEQPLLHPLKMLLNKQLLKKAFEDADTHVELKKYLSKNGYSKLVQWMEEMTQ | not soluble
MIDQTALATEIKRLIKAAGPMPVWRYMELCLGHPEHGYYVTRDPLGREGDFTTSPEISQMFGELLGLWSASVWKAADEPQTLRLIEIGPGRGTMMADALRALRVLPILYQSLSVHLVEINPVLRQKQQTLLAGIRNIHWHDSFEDVPEGPAVILANEYFDVLPIHQAIKRETGWHERVIEIGASGELVFGVAADPIPGFEALLPPLARLSPPGAVFEWRPDTEILKIASRVRDQGGAALIIDYGHLRSDVGDTFQAIASHSYADPLQHPGRADLTAHVDFDALGRAAESIGARAHGPVTQGAFLKRLGIETRALSLMAKATPQVSEDIAGALQRLTGEGRGAMGSMFKVIGVSDPKIETLVALSDDTDREAERRQGTHGLEHHHHHH | soluble
MIDRPDTGEGTNYLIVGSDSRAGMSAEEKKKLHTGSAEGKRTDSMMILHTGDNGSTLVSLPRDSDVEIPTFKGSTSGKTYPGTGRHVKLNAAYAEDGPELLVRTIEYNTGLHIDHYVEIGFAGFANIVDSVGGVEMTLDKGFKDTFSGADFKAGKQTLNGEQALAFVRTRHAFAASDLERTKNQQKFLSALAHQVATPSTVLNPFKLYPTLSSGLDTLIVDKDMGLFDLADMFWAMKGVTGGDGTSMNMPISGSSGGNLVWDKAKVKALVNELKNDEKVTVSGNLEHHHHHH | soluble
MIDTLKNIKVKDVMTKNVITAKRHEGVVEAFEKMLKYKISSLPVIDDENKVIGIVTTTDIGYNLIRDKYTLETTIGDVMTKDVITIHEDASILEAIKKMDISGKKEEIINQLPVVDKNNKLVGIISDGDIIRTISKII | soluble
MIDWPLAELLPHAGDMILIDQVLAFDEEQIRTRLEVRPGGLFNRPDGSLPAWVGVELMAQSVAAYAGCRARQQGLPVELGFLLGTRKFECNVEHFPLGSTLEIHALRSLEDDNGMGVFECHLSGPGITASARLNVFRPPQAADYLHETPLEHHHHHH | not soluble
MIEERFDAIVVGAGMAGNAAALTMAKRGLKVLQIERGEYPGSKNVQGAILYADMLEKLVPDFREDAPLERHLVEQRFWMMDGKSHTGLHHRSEDFNEEKPNRYTIIRAQFDKWLSSKAQEAGAIVLCETTVKELVQDAYGKVIGVITDREGGQVHADVVVLAEGVNGLLGTKAELRERPTPENVALAVKEMHFLPRETIEARFNLKGDEGVVIEAAGTISAGMTGMGFIYTNKESISIGIGCLVSDFQKTGETPYGLLERFKKHPSVAPLIEGSEVKEYAGHLIPEGGYNAIPQLYGDGWVVVGDAAQLNNAMHREGSNLAMTSGRIAAEAIFQVKSRKDPMTKENLALYKKMLDDSFVIKDLKKYKDMPDLLHIRSQNFFLTYPQLVNKALQNFVRVDGTPKIEKEKTTIKSFVSARSWGGLFGDAFRFARAWR | not soluble
MIEIKNLTLQRGLKVLLDKANATVNPGQRVGLIGKNGTGKSSLFALIKGEITQDGGDVSIPKNWRLASVSQETPDLDISALDYVLQGDAELQAFQTALRQAEAQNDGMKQAEYHAKLEE | not soluble
MIEIKNVNKVFYQGSKEILALKDINLHIAKGTIFGVIGSSGAGKSTLIRCVNMLEAPSSGSIIVDGVDLTTLSKKQLVETRRNIGMIFQHFNLLSSRTVFDNVALPLELAGKDKSQITTKVTELLKLVGLADKHESYPSNLSGGQKQRVAIARALASDPSVLLCDEATSALDPATTQSILELLKEINRKLNITILLITHEMEVVKSICHEVAIIGGGELVEKGTVGDIFAHPKTELAHEFIRSTLDLSIPEDYQARLQPNRVEGSYPLVRMEFTGATVDAPLMSQISRKYNIDVSILSSDLDYAGGVKFGMMVAELFGNEQDDSAAIEYLREHNVKVEVLGYVL | not soluble
MIEIKVPELAESITEGTISQWLLNVGDKVEKGGSVVELETDKVNVEIIAEDSGIVSKLLGEPGDTVEVGATIAILDANGAPVAVSTPAPAEQSKQETAEAPKAAAPSAEQTATLQGLPNTNRPIASPAARKMARELGIDLNDVRSTDPLGRVRPHDVQAHAAAPKEAPAAPKSPAPAPVAKTEFEKPVERVKMSRRRQTIAKRLVEVQQTSAMLTTFNEVDMTAIMELRKERKDAFEKKHDVRLGFMSFFTKAVVAALKQFPLLNAEIQGDELIIKKFYDIGIAVAAPDGLVVPVVRDANQLNFAEIESEIRELGKKARDNKLSLKELQGGTFTITNGGVFGSLMSTPILNSPQVGILGMHKIQVRPVAIDNERMENRPMMYIALSYDHRIVDGKEAVSFLVAVKDMLEDPKSLLLEG | not soluble
MIELAELTKTAGGLVIDQFTQKRERPDSRTMIGSGKLEQMRWAIEVGEIDTVIFNDRLSPRQNVNLEEALGVKVIDRMQLILDIFAMRARSHEGMLQVEEAQLNYLLPRLVGQGIMLSRQGGGIGSKGPGETKLETDRRYIRTRIENIDKALKKVEKTRENIRQKRSKSGIFRIGLIGYTNAGKSSIMNALVGLDKEQYEQNELFATLDATTKAVKLVEDFTVSLTDTVGFIQNLPTELIKAFKSTLEESANVDLLIHVVDASNPHHEIHEQTVLKIMEDLKLTNIPVLNVYNKMDIAPSDFLPTLSPSLQLSIKSESGVQWLKTAILEKLHELFDAFELELPYEKAYQLPELRKSALVQSVVEGEKGYLIKGLIAPELSWKLPNNLEHHHHHH | not soluble
MIELKGISQHFRGAGGTDVHALRDVDLSIDKGEIFGIIGRSGAGKSTLVRVINLLNRPTSGTVTVAGQSLTALNADGLRQARRKIGMIFQHFNLLSSRTVYDNVALPLELAGTPRERIREIVLPLLELVGLDAHKDRYPAQISGGQKQRVGIARALASQPDVLLSDEATSALDPETTRSILDLLRKINRELGLTIVLITHQMEVIKQVCDRVAVLDAGRVVELGRVIDVFLKPRHDVTRALIGEVISQELPPSVLARVESRLVAARERGGRDHLFRLAFTGAGVDQPVLAQAIRNYGLDFNILHGHIDEIQGQAFGSLAILASGESADIDNAMHFLREQGVVVEEINHVVLEHHHHHH | not soluble
MIEPGVNYADLFAKEVRKHPKKYPKTVRLAIDRWYRWKKRKDIWFDVDRANEMMDWVESFIVHTKGDMVGKPFLLEPWEKFIYSWIYGWVKENEKGQVVRVTREAYVQIPKKNGKTLIAVGALGYAMYGEGALSVDCYACASDFAQAQYAAKPFAATILNNPVLLDGTKIFKGPKGTVSSITYDYLHGDMAYTNKFIVQTKNIDNIEGSNPYFVLNDELHKQEKMEQYDNFKSAQISLPQPLMFNISTAGKGSSSVGIRVYKEAKEVLKRDDNDSNFVLIYEPNKGYDWTDRKVWEMCNPNWGISVDLSALESAFKTAQRSAHSKAEFLTKHLDVFVNGADNFFEQDQVEPCLVPTNELGNLSGEPCWIGLDLSKSRDLTCVSLNFPTWDAEGKAILKVKQLYFIPSENIDFREKEDNVPYSELAEQGFVEFCDGKLIDQEQIFHFIEDCMDFYDVQQVNYDPAMSDRLVEKLENLGLECVQVDQYARVLNSPLEDAERLFYEQRIMFDNPLFLYCALNVVVKMDFQGRKVPSKNQSKRKIDGFVAFLCAHKETMDQMIDVNEDDMDEYLDSIYR | not soluble
MIEVKPINAEDTYELRHRILRPNQPIEACMFESDLLRGAFHLGGYYGGKLISIASFHQAEHSELQGQKQYQLRGMATLEGYREQKAGSSLIKHAEEILRKRGADLLWCNARTSASGYYKKLGFSEQGEVFDTPPVGPHILMYKRIT | soluble
MIFAAIADIHGNCAALEAVLEDIAKLGIKDIVNLGDCFSGPLEAGFTGDVLVGNWIPSIRGNHDRELIERAPENMGSWEKPAHAQLTAAHLDWLHTLPFSMVFRDVAYCCHGSPLGDLDYWLETLSPEGVLKLRPLAEIEERAEGITQPLMLCGHTHIPRAVQLSDGRLIVNPGSVGCPGWKDDTPFDHHVEAGHALATYAVLEETGRGWQVYFRNIRYDNLAMSEMARVNGIPYLADALTNGWLKR | not soluble
MIFGRTERGKPPVEPVTLKILVAGGFGVGKTTLVGAVSEIRPLRTEEVLTEAGRPVDDISGVEGKHTTTVAMDFGRITLREDLVLYLFGTPGQDRFWFLWDELATGALGAVVLADTRRLEDCFAAVDYFERRSIPFVMGVNCFEEAARYPVEDVRRALDLDDDVPVVLCDARDRESVKEVLIDVVRHAMAHAAERRETVSGLEHHHHHH | not soluble
MIFGVSRTAGMQPHQNKLPPAFPICPPRFLQNKPPAPPLREAVRHSEYPDPRYEMTFQTAFAPPRFEYSGLTLNQDKATKPQTV | not soluble
MIFSDWPWRHWRQVRGEAIALRLNDEQLNWRELCARVDELASGFAVQGVVEDSGVMLRAWNTPQTLLAWLALLQCGARVLPVNPQLPQPLLEELLPNLTLQFALVPDGENTFPALTSLHIQRVEGAHVATWQPTRLCSMTLTSGSTGLPKAAVHTYQAHLASAEGVLSLIPFGDHDDWLLSLPLFHVSGQGIMWRWLYAGARMTVRDKQPLEQMLAGCTHASLVPTQLWRLLVNRSSVSLKAVLLGGAAIPVELTEQAREQGIRCFCGYGLTEFASTVCAKEADGLADVGSPLPGREVKIVNNEVWLRAASMAEGYWRNGQLVSLVNDEGWYATRDRGEMHNGKLTIVGRLDNLFFSGGEGIQTEEVERVIAAHPAVLQVFIVPVADKEFGHRPVAVMEYDHESVDLSEWVKDKLARFQQPVRWLTLPPELKNGGIKISRQALKEWVQRQQ | not soluble
